Numbered stars: 1 amine (or outer) side, 2 acyl side, 3 side chain; on linkers, the order of the positions; unused ones are H or OH. Square brackets hold non-standard residues; d marks the D form. * marks the point of attachment. X2 = 4‑amino‑1‑((3-fluoro-4-methylbenzyl)glycyl)piperidine‑4‑carboxylic acid, Cc1ccc(CN(CC(=O)N2CCC(N[*:1])(C(=O)[*:2])CC2)[*:3])cc1F; X7 = 4‑amino‑1‑(N-methylcarbamimidoyl)piperidine‑4‑carboxylic acid, CNC(=N)N1CCC(N[*:1])(C(=O)[*:2])CC1; DOTA = O=C(O)CN1CCN(CC(=O)O)CCN(CC(=O)*)CCN(CC(=O)O)CC1; Ala(9-anthryl) = N[C@@H](Cc1c2ccccc2cc2ccccc12)C(=O)O; Api(1-amidino) = N=C(N)N1CCC(N)(C(=O)O)CC1; HO(CH2CH2O)2CH2CH2CO = O=C(CCOCCOCCO)*; d2Nal = N[C@H](Cc1ccc2ccccc2c1)C(=O)O; 4Pal = N[C@@H](Cc1ccncc1)C(=O)O; Nle = CCCC[C@H](N)C(=O)O; Ahx = NCCCCCC(=O)O; azaGly = NNC(=O)O; βAla = NCCC(=O)O
B1: Compound 16 (peptide)
peptide: {DOTA}-[βAla][dN][dN][dK][dE][dN]F[azaGly]L[X2]W-NH2
SMILES: Cc1ccc(CNCC(=O)N2CCC(NC(=O)[C@H](CC(C)C)NC(=O)NNC(=O)[C@H](Cc3ccccc3)NC(=O)[C@@H](CC(N)=O)NC(=O)[C@@H](CCC(=O)O)NC(=O)[C@@H](CCCCN)NC(=O)[C@@H](CC(N)=O)NC(=O)[C@@H](CC(N)=O)NC(=O)CCNC(=O)CN3CCN(CC(=O)O)CCN(CC(=O)O)CCN(CC(=O)O)CC3)(C(=O)N[C@@H](Cc3c[nH]c4ccccc34)C(N)=O)CC2)cc1F
B2: Compound 252 (peptide)
peptide: {HO(CH2CH2O)2CH2CH2CO}-K(DOTA)ETF[azaGly]L[X2][4Pal]-NH2
SMILES: Cc1ccc(CNCC(=O)N2CCC(NC(=O)[C@H](CC(C)C)NC(=O)NNC(=O)[C@H](Cc3ccccc3)NC(=O)[C@@H](NC(=O)[C@H](CCC(=O)O)NC(=O)[C@H](CCCCNC(=O)CN3CCN(CC(=O)O)CCN(CC(=O)O)CCN(CC(=O)O)CC3)NC(=O)CCOCCOCCO)[C@@H](C)O)(C(=O)N[C@@H](Cc3ccncc3)C(N)=O)CC2)cc1F
B3: Compound 3 (peptide)
peptide: {DOTA-Ahx}-FGL[Api(1-amidino)]W-NH2
SMILES: CC(C)C[C@H](NC(=O)CNC(=O)[C@H](Cc1ccccc1)NC(=O)CCCCCNC(=O)CN1CCN(CC(=O)O)CCN(CC(=O)O)CCN(CC(=O)O)CC1)C(=O)NC1(C(=O)N[C@@H](Cc2c[nH]c3ccccc23)C(N)=O)CCN(C(=N)N)CC1
B4: Compound 15 (peptide)
peptide: {DOTA}-[βAla][dN][dN][dE][dE][dN]F[azaGly]L[X2]W-NH2
SMILES: Cc1ccc(CNCC(=O)N2CCC(NC(=O)[C@H](CC(C)C)NC(=O)NNC(=O)[C@H](Cc3ccccc3)NC(=O)[C@@H](CC(N)=O)NC(=O)[C@@H](CCC(=O)O)NC(=O)[C@@H](CCC(=O)O)NC(=O)[C@@H](CC(N)=O)NC(=O)[C@@H](CC(N)=O)NC(=O)CCNC(=O)CN3CCN(CC(=O)O)CCN(CC(=O)O)CCN(CC(=O)O)CC3)(C(=O)N[C@@H](Cc3c[nH]c4ccccc34)C(N)=O)CC2)cc1F
B5: Compound 49 (peptide)
peptide: {DOTA}-F[azaGly]L[X2]W-NH2
SMILES: Cc1ccc(CNCC(=O)N2CCC(NC(=O)[C@H](CC(C)C)NC(=O)NNC(=O)[C@H](Cc3ccccc3)NC(=O)CN3CCN(CC(=O)O)CCN(CC(=O)O)CCN(CC(=O)O)CC3)(C(=O)N[C@@H](Cc3c[nH]c4ccccc34)C(N)=O)CC2)cc1F
B6: Compound 123 (peptide)
peptide: {DOTA}-[dY][Ala(9-anthryl)]NTF[azaGly][Nle][Api(1-amidino)][4Pal]-NH2
SMILES: CCCC[C@H](NC(=O)NNC(=O)[C@H](Cc1ccccc1)NC(=O)[C@@H](NC(=O)[C@H](CC(N)=O)NC(=O)[C@H](Cc1c2ccccc2cc2ccccc12)NC(=O)[C@@H](Cc1ccc(O)cc1)NC(=O)CN1CCN(CC(=O)O)CCN(CC(=O)O)CCN(CC(=O)O)CC1)[C@@H](C)O)C(=O)NC1(C(=O)N[C@@H](Cc2ccncc2)C(N)=O)CCN(C(=N)N)CC1
B7: Compound 319 (peptide)
peptide: {DOTA-Ahx}-[dY][d2Nal]NTF[azaGly]L[X7][dW]-NH2
SMILES: CNC(=N)N1CCC(NC(=O)[C@H](CC(C)C)NC(=O)NNC(=O)[C@H](Cc2ccccc2)NC(=O)[C@@H](NC(=O)[C@H](CC(N)=O)NC(=O)[C@@H](Cc2ccc3ccccc3c2)NC(=O)[C@@H](Cc2ccc(O)cc2)NC(=O)CCCCCNC(=O)CN2CCN(CC(=O)O)CCN(CC(=O)O)CCN(CC(=O)O)CC2)[C@@H](C)O)(C(=O)N[C@H](Cc2c[nH]c3ccccc23)C(N)=O)CC1

The binders below were run against human kisspeptin receptor (KISS1R) (human), Q969F8 (assay: radioligand competition, hKISS1R membranes; legend: C is >100 nM).
human kisspeptin receptor (KISS1R) (human), Q969F8, sequence (Q969F8 whole entry): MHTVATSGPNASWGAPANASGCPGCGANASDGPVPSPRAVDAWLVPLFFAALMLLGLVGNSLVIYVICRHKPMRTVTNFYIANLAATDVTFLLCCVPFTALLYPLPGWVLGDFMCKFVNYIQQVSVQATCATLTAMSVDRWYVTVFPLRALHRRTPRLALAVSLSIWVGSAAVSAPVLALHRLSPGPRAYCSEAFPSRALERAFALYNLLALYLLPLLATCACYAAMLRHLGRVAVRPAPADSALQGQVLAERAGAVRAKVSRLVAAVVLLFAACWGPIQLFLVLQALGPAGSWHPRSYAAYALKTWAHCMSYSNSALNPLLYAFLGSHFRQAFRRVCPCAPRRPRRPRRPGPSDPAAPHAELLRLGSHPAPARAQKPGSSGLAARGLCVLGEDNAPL

Ki, > 100 nM:
B1
B2
B3
B4
B5

The binders below were run against human kisspeptin receptor (KISS1R) (human) (UniProt Q969F8) in the same assay as above.
human kisspeptin receptor (KISS1R) (human), sequence (Q969F8 whole entry): as above

Ki, > 100 nM:
B6
{DOTA-Ahx}-[dY][d2Nal]NTF[azaGly]L[4‑amino‑1‑(((tetrahydro-2H-thiopyran-4-yl)methyl)glycyl)piperidine‑4‑carboxylic acid][dW]-NH2 [Compound 375]
B7
{DOTA-Ahx}-[dY][d2Nal]NTF[azaGly]L[4‑amino‑1‑((pyridin-4-ylmethyl)glycyl)piperidine‑4‑carboxylic acid][dW]-NH2 [Compound 370]
